The record followed here is publication PMC11876703, “Structural basis for human NKCC1 inhibition by loop diuretic drugs” (The EMBO Journal, 2025).

The target of series [1] is T1, phospho-activated human NKCC1 (Na+-K+-Cl- cotransporter 1) (human), P55011.
T1 chain: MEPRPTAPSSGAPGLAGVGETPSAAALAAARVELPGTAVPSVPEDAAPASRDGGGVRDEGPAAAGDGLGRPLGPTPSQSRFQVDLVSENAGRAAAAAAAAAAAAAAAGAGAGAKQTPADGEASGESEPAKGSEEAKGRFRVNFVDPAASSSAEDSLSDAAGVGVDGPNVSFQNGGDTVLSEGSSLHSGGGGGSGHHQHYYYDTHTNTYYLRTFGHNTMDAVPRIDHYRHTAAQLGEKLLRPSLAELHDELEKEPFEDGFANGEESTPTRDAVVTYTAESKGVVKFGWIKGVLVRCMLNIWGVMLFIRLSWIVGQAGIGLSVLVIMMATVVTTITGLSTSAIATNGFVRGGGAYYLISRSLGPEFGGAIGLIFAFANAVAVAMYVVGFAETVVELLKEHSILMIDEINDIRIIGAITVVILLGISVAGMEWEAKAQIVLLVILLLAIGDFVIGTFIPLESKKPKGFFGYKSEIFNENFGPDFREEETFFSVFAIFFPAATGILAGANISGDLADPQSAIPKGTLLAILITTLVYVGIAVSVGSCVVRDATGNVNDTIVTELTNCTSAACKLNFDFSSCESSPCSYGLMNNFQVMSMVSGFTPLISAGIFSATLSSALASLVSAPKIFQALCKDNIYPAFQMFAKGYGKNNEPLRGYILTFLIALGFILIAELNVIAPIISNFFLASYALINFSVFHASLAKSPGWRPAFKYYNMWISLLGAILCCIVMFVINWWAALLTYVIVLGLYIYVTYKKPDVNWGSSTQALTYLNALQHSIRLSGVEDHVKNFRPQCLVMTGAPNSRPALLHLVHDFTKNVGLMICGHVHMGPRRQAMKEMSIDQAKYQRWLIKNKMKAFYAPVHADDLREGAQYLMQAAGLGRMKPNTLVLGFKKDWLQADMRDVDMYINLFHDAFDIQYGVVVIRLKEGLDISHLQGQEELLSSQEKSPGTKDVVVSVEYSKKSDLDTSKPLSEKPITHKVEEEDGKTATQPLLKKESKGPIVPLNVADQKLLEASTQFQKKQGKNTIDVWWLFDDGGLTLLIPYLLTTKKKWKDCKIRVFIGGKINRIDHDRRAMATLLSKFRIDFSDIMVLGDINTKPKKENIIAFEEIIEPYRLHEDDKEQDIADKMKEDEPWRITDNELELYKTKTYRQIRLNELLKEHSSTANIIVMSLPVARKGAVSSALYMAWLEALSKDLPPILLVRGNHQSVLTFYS
Briefly: cryo-EM structure; purified pNKCC1 in GDN, 20 mM HEPES pH 7.4, with 100 uM bumetanide, 100 uM torsemide (K+-free buffer) or 2 mM furosemide plus 100 uM ATP; homodimer. The following applies: remark: other sources report otherwise.

Series [2] concerns the molecule itself. The description is as above.

B1: phospho-activated human NKCC1 (Na+-K+-Cl- cotransporter 1), P55011 1-1212 (natural protein)
chain: MEPRPTAPSSGAPGLAGVGETPSAAALAAARVELPGTAVPSVPEDAAPASRDGGGVRDEGPAAAGDGLGRPLGPTPSQSRFQVDLVSENAGRAAAAAAAAAAAAAAAGAGAGAKQTPADGEASGESEPAKGSEEAKGRFRVNFVDPAASSSAEDSLSDAAGVGVDGPNVSFQNGGDTVLSEGSSLHSGGGGGSGHHQHYYYDTHTNTYYLRTFGHNTMDAVPRIDHYRHTAAQLGEKLLRPSLAELHDELEKEPFEDGFANGEESTPTRDAVVTYTAESKGVVKFGWIKGVLVRCMLNIWGVMLFIRLSWIVGQAGIGLSVLVIMMATVVTTITGLSTSAIATNGFVRGGGAYYLISRSLGPEFGGAIGLIFAFANAVAVAMYVVGFAETVVELLKEHSILMIDEINDIRIIGAITVVILLGISVAGMEWEAKAQIVLLVILLLAIGDFVIGTFIPLESKKPKGFFGYKSEIFNENFGPDFREEETFFSVFAIFFPAATGILAGANISGDLADPQSAIPKGTLLAILITTLVYVGIAVSVGSCVVRDATGNVNDTIVTELTNCTSAACKLNFDFSSCESSPCSYGLMNNFQVMSMVSGFTPLISAGIFSATLSSALASLVSAPKIFQALCKDNIYPAFQMFAKGYGKNNEPLRGYILTFLIALGFILIAELNVIAPIISNFFLASYALINFSVFHASLAKSPGWRPAFKYYNMWISLLGAILCCIVMFVINWWAALLTYVIVLGLYIYVTYKKPDVNWGSSTQALTYLNALQHSIRLSGVEDHVKNFRPQCLVMTGAPNSRPALLHLVHDFTKNVGLMICGHVHMGPRRQAMKEMSIDQAKYQRWLIKNKMKAFYAPVHADDLREGAQYLMQAAGLGRMKPNTLVLGFKKDWLQADMRDVDMYINLFHDAFDIQYGVVVIRLKEGLDISHLQGQEELLSSQEKSPGTKDVVVSVEYSKKSDLDTSKPLSEKPITHKVEEEDGKTATQPLLKKESKGPIVPLNVADQKLLEASTQFQKKQGKNTIDVWWLFDDGGLTLLIPYLLTTKKKWKDCKIRVFIGGKINRIDHDRRAMATLLSKFRIDFSDIMVLGDINTKPKKENIIAFEEIIEPYRLHEDDKEQDIADKMKEDEPWRITDNELELYKTKTYRQIRLNELLKEHSSTANIIVMSLPVARKGAVSSALYMAWLEALSKDLPPILLVRGNHQSVLTFYS
modifications: here or on the partner: phosphothreonine at Thr212, Thr217 and Thr230 (verified by mass spectrometry); Thr203, Thr205 and Thr207 also named as phosphoacceptor sites confirmed by mass spectrometry; phosphothreonine at Thr212, Thr217 and Thr230 (verified by mass spectrometry); Thr203, Thr205 and Thr207 also named as phosphoacceptor sites confirmed by mass spectrometry
For orientation: stoichiometry N means a count of units in the complex or per binding partner. B1: the stoichiometry N in series [1] was determined as 2.

B2: phospho-activated human NKCC1 bearing K289N and A492E mutations (natural protein, UniProt P55011 1-1212, looked up)
chain: MEPRPTAPSSGAPGLAGVGETPSAAALAAARVELPGTAVPSVPEDAAPASRDGGGVRDEGPAAAGDGLGRPLGPTPSQSRFQVDLVSENAGRAAAAAAAAAAAAAAAGAGAGAKQTPADGEASGESEPAKGSEEAKGRFRVNFVDPAASSSAEDSLSDAAGVGVDGPNVSFQNGGDTVLSEGSSLHSGGGGGSGHHQHYYYDTHTNTYYLRTFGHNTMDAVPRIDHYRHTAAQLGEKLLRPSLAELHDELEKEPFEDGFANGEESTPTRDAVVTYTAESKGVVKFGWINGVLVRCMLNIWGVMLFIRLSWIVGQAGIGLSVLVIMMATVVTTITGLSTSAIATNGFVRGGGAYYLISRSLGPEFGGAIGLIFAFANAVAVAMYVVGFAETVVELLKEHSILMIDEINDIRIIGAITVVILLGISVAGMEWEAKAQIVLLVILLLAIGDFVIGTFIPLESKKPKGFFGYKSEIFNENFGPDFREEETFFSVFEIFFPAATGILAGANISGDLADPQSAIPKGTLLAILITTLVYVGIAVSVGSCVVRDATGNVNDTIVTELTNCTSAACKLNFDFSSCESSPCSYGLMNNFQVMSMVSGFTPLISAGIFSATLSSALASLVSAPKIFQALCKDNIYPAFQMFAKGYGKNNEPLRGYILTFLIALGFILIAELNVIAPIISNFFLASYALINFSVFHASLAKSPGWRPAFKYYNMWISLLGAILCCIVMFVINWWAALLTYVIVLGLYIYVTYKKPDVNWGSSTQALTYLNALQHSIRLSGVEDHVKNFRPQCLVMTGAPNSRPALLHLVHDFTKNVGLMICGHVHMGPRRQAMKEMSIDQAKYQRWLIKNKMKAFYAPVHADDLREGAQYLMQAAGLGRMKPNTLVLGFKKDWLQADMRDVDMYINLFHDAFDIQYGVVVIRLKEGLDISHLQGQEELLSSQEKSPGTKDVVVSVEYSKKSDLDTSKPLSEKPITHKVEEEDGKTATQPLLKKESKGPIVPLNVADQKLLEASTQFQKKQGKNTIDVWWLFDDGGLTLLIPYLLTTKKKWKDCKIRVFIGGKINRIDHDRRAMATLLSKFRIDFSDIMVLGDINTKPKKENIIAFEEIIEPYRLHEDDKEQDIADKMKEDEPWRITDNELELYKTKTYRQIRLNELLKEHSSTANIIVMSLPVARKGAVSSALYMAWLEALSKDLPPILLVRGNHQSVLTFYS
modifications: phosphothreonine at Thr212, Thr217 and Thr230 (verified by mass spectrometry; pT212 and pT217 clearly seen in the map, pT230 tentatively modeled); Thr203, Thr205 and Thr207 also named as phosphoacceptor sites confirmed by mass spectrometry
notes: Used for the furosemide/ATP-Mg2+ co-structure; The tag was used for Strep-Tactin purification and no cleavage step is described; also called pNKCC1; NKCC1 (furosemide co-structure); source: calyculin-A treated; purified (Strep-Tactin resin, Superose 6) in GDN with 100 uM ATP
As for B2, in series [2], the “stoichiometry N” value was found to be 2.
